Data as given in patent publication US20230203146A1 (Boehringer Ingelheim, published 2023).
Like-named read-outs stand apart in the source and are kept apart here.

T1: FLAG-tagged cynomolgus Ang2 (cynomolgus, UniProt O15123 19-496 (human entry), limits assumed)
T1 construct: N-terminally FLAG-tagged, conditioned medium of HEK293T cells; also called cAng2; FLAG-cAng2
T1 chain: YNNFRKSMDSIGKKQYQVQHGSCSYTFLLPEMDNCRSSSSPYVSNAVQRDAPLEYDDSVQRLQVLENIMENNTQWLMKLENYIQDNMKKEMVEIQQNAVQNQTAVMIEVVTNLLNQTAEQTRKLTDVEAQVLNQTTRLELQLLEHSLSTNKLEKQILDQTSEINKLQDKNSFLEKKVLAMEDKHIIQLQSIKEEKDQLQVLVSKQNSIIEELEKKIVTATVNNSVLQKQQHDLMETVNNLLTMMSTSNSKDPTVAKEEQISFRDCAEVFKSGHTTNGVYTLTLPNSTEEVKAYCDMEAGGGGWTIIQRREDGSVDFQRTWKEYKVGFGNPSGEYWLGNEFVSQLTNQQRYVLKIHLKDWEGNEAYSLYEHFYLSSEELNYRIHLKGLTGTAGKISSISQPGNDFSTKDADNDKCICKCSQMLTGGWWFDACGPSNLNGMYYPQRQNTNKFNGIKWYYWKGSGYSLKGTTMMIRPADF

T2: FLAG-tagged mouse Ang2 (mouse, UniProt O35608 19-496)
T2 construct: N-terminally FLAG-tagged, conditioned medium of HEK293T cells; also called mAng2; FLAG-mAng2
T2 sequence: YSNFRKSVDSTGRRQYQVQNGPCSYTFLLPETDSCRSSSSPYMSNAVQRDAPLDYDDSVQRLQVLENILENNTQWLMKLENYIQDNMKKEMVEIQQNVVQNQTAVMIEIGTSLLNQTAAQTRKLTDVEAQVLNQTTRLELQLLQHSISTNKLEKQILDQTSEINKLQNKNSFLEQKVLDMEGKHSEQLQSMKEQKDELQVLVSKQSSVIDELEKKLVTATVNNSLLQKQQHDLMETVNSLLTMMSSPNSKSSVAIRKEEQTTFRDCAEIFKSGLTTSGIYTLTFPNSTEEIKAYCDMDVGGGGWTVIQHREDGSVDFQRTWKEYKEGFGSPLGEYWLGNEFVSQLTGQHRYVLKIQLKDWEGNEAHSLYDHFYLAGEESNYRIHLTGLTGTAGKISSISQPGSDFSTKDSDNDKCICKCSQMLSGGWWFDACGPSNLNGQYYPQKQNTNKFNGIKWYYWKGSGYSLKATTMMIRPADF


Assays:
[1] = molecular target: T1, FLAG-tagged cynomolgus Ang2; assay: competition ELISA: FLAG-cAng2 binding to coated cTie2-Fc
[2] = molecular target: T2, FLAG-tagged mouse Ang2; assay: competition ELISA: FLAG-mAng2 binding to coated mTie2-Fc
Protocol: (§1) In brief, 2 μg/mL of recombinant mouse Tie2-Fc or cyno Tie2-Fc is coated overnight at 4° C. in a 96-well MaxiSorp plate (Nunc, Wiesbaden, Germany). Coated wells are blocked with a 1% casein solution.

[3] = molecular target: T1, FLAG-tagged cynomolgus Ang2; assay: competition ELISA: FLAG-cAng2 binding to coated cTie2-Fc
Protocol: as §1

[4] = molecular target: T2, FLAG-tagged mouse Ang2; assay: competition ELISA: FLAG-mAng2 binding to coated mTie2-Fc; remark: listed apart in the source
Protocol: as §1

[5] = molecular target: T1, FLAG-tagged cynomolgus Ang2; assay: competition ELISA: FLAG-cAng2 binding to coated cTie2-Fc
Protocol: as §1

[6] = molecular target: T2, FLAG-tagged mouse Ang2; assay: competition ELISA: FLAG-mAng2 binding to coated mTie2-Fc; remark: listed apart in the source
Protocol: as §1

Row | IC50 [1] | IC50 [2] | IC50 [3] | IC50 [4] | IC50 [5] | IC50 [6] | Binder
1 | 0.079 nM | 0.085 nM | 0.079 nM | 0.085 nM |  |  | VHH 00908 (VHH, not shown: small tags and cut ends) VHH: EVQLVESGGGLVQPGGSLRLSCAASGITLDDYAIGWFRQAPGKEREGVSSIRDNGGSTYYADSVKGRFTISSDNSKNTVYLQMNSLRPEDTAVYYCAAVPAGRLRYGEQWYPIYEYDAWGQGTLVTVSS
2 | 0.728 nM | 1.98 nM | 0.728 nM | 1.98 nM | 0.7 nM | 2 nM | VHH 00027 (VHH, not shown: small tags and cut ends, Variant of 28D10 carrying C50S/S53N and Q108L) VHH: EVQLVESGGGLVQAGGSLRLSCAASGFTLDDYAIGWFRQAPGKEREGVSSIRDNDGSTYYADSVKGRFTISSDNDKNTVYLQMNSLKPEDTAVYYCAAVPAGRLRFGEQWYPLYEYDAWGQGTLVTVSS
3 | 0.753 nM | 1.91 nM |  |  | 0.8 nM | 1.9 nM | VHH 00042 (VHH, not shown: small tags and cut ends) VHH: EVQLVESGGGLVQPGGSLRLSCAASGFTLDDYAIGWFRQAPGKEREGVSSIRDNDGSTYYADSVKGRFTISSDNSKNTVYLQMNSLRPEDTAVYYCAAVPAGRLRFGEQWYPLYEYDAWGQGTLVTVSS
